Reference: US20030211575A1

Assays:
Assay in all cases: cell-based or functional assay
[1] = biological target: Kv2.1 K+ channel P406D mutant (rat) (UniProt P15387)
[2] = biological target: Shaker H4 K+ channel, N-terminal deletion 6-46, P475D mutant (Drosophila) (UniProt P08510)
[3] = biological target: Shaker H4 K+ channel, N-terminal deletion 6-46, P475E mutant (Drosophila) (UniProt P08510)
[4] = biological target: Shaker H4 K+ channel, N-terminal deletion 6-46, P475H mutant (Drosophila) (UniProt P08510)
Chain of Shaker H4 K+ channel, N-terminal deletion 6-46, P475H mutant (Drosophila) (P08510 whole entry P475H): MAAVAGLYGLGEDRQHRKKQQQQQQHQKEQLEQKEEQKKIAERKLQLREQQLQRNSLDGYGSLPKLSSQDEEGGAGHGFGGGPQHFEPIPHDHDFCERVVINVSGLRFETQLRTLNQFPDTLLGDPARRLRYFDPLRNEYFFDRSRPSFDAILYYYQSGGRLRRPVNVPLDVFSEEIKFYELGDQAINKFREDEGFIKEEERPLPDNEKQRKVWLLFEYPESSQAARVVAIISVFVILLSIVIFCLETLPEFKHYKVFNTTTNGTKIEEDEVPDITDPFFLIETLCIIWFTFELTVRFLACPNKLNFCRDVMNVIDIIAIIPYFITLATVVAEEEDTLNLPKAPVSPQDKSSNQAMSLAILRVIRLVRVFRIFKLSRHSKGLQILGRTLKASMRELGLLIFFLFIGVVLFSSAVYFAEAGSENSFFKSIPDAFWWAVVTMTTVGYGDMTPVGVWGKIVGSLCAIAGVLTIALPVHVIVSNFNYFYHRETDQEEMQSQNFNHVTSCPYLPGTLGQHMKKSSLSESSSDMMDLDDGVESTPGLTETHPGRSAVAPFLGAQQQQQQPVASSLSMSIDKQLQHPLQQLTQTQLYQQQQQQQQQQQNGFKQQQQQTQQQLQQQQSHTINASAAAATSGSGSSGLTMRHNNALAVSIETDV

[5] = biological target: Shaker H4 K+ channel, N-terminal deletion 6-46, P475K mutant (Drosophila) (UniProt P08510)
Chain of Shaker H4 K+ channel, N-terminal deletion 6-46, P475K mutant (Drosophila) (P08510 whole entry P475K): as the sequence (P08510 whole entry P475H) above, with H475K counted along it

Measured: block of channel current (two-electrode voltage clamp, Xenopus oocytes); concentration called saturating

Chain of Shaker H4 K+ channel, N-terminal deletion 6-46, P475E mutant (Drosophila) (P08510 whole entry P475E): as the sequence (P08510 whole entry P475H) above, with H475E counted along it
Chain of Shaker H4 K+ channel, N-terminal deletion 6-46, P475D mutant (Drosophila) (P08510 whole entry P475D): as the sequence (P08510 whole entry P475H) above, with H475D counted along it

agitoxin2 (from UniProt P46111 1-38) (peptide)
1 µM: all assays above
